This is an account of results in article doi:10.1101/2024.05.08.592561 (bioRxiv, 2024).

The target of one data set is T1, ParT (Streptomyces coelicolor A3(2), plasmid …, UniProt Q8VWE5 1-325).
T1 sequence: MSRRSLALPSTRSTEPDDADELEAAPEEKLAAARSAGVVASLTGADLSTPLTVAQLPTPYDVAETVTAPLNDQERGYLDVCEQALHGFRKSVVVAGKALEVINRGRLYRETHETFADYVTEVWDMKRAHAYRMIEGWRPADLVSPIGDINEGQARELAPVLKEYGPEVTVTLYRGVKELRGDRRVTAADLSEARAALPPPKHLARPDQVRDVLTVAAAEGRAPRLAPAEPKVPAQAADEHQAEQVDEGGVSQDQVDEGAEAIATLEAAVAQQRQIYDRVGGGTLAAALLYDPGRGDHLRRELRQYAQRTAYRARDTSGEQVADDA
Nature of the data set: BLI.

The data set “mass photometry” concerns the molecule itself. The experiment in a line: mass photometry.

B1: 40-bp parS duplex (dsDNA)
DNA 1: GGCCGACCTCGTGTCTCCAATTGGAGACATCAACGAGGGC
DNA 2: GCCCTCGTTGATGTCTCCAATTGGAGACACGAGGTCGGCC
For the molecule B1, the dissociation constant (Kd) with ParT worked out at 680 ± 200 nM.

B2: 40-bp scrambled parS duplex (dsDNA)
DNA 1: ATCGGGCACCTTAGGGCAATCGTAAGTTCGGCGCACGACC
DNA 2: GGTCGTGCGCCGAACTTACGATTGCCCTAAGGTGCCCGAT
For the molecule B2, the binding result with ParT is recorded as “no binding”.

B3: ParT-His6 (wild type) (natural protein)
chain: T1 sequence
As to B3, the “stoichiometry N” value in “mass photometry” amounted to 2.
